Test results published in publication doi:10.1101/419051 (bioRxiv, 2018).

B1: α2 subunit of the CP (natural protein)
chain: MAERGYSFSLTTFSPSGKLVQIEYALAAVAGGAPSVGIKAANGVVLATEKKQKSILYDERSVHKVEPITKHIGLVYSGMGPDYRVLVHRARKLAQQYYLVYQEPIPTAQLVQRVASVMQEYTQSGGVRPFGVSLLICGWNEGRPYLFQSDPSGAYFAWKATAMGKNYVNGKTFLEKRYNEDLELEDAIHTAILTLKESFEGQMTEDNIEVGICNEAGFRRLTPTEVKDYLAAIA
B2: α3 subunit of the CP (natural protein)
chain: MSRRYDSRTTIFSPEGRLYQVEYAMEAIGHAGTCLGILANDGVLLAAERRNIHKLLDEVFFSEKIYKLNEDMACSVAGITSDANVLTNELRLIAQRYLLQYQEPIPCEQLVTALCDIKQAYTQFGGKRPFGVSLLYIGWDKHYGFQLYQSDPSGNYGGWKATCIGNNSAAAVSMLKQDYKEGEMTLKSALALAIKVLNKTMDVSKLSAEKVEIATLTRENGKTVIRVLKQKEVEQLIKKHEEEEAKAEREKKEKEQKEKDK

Target: Rpt6 (human, UniProt P62195 1-406)
Assay: cryo-EM structure

Row | binding result | Binder
1 | binds | B1
2 | binds | B2
